Experimental data taken from US20120064150A1.

Experiments:
[1] = target: inter-α-inhibitor (IαI) (human) (UniProt P02760)
[2] = target: inter-α-inhibitor (IαI) (human) (UniProt P02760); assay: cell-based or functional assay

Chain of UniProt P02760 (P02760 206-352): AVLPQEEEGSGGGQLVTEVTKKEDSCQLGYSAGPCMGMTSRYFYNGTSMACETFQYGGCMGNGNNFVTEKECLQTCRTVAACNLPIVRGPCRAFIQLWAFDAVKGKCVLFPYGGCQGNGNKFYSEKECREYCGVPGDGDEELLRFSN

Substance “TNF-stimulated gene 6 protein (TSG-6), recombinant (from UniProt P98066 18-277)” has an EC50 (read off the curve): TSG-6 concentration for half-maximal HC transfer from plasma IαI (1:1000) to Cov-HA [1] of 400 pM, an HC transfer to Cov-HA in the presence of 50 nM TSG-6, plasma dilution series [2] of 200 pM and a decrease in HC transfer to Cov-HA in the presence of 50 nM TSG-6, plasma dilution 1:4000 [2] of 50%. The transfer of HCs from IαI in human plasma (1:1000) to Cov-HA, detected with anti-HC antibody [2] was 16 µM.
